For assay [1], the target named is human Factor VIII (FVIII) (human) (UniProt P00451). Put plainly: cell-based or functional assay.
Assay [2] has the same target. Nature of the assay: SPR (BIAcore), BOIIB2 immobilised on a CM5 chip, FVIII in HBS as analyte.
Assay [3] has as its target T1, A2 domain residues 379-546 of FVIII with mutation R484A (human, UniProt P00451 398-565, 35S-methionine labelled).
T1 construct: the text lists R484A; Y487A; not shown: cmyc (9E10) tag
T1 sequence: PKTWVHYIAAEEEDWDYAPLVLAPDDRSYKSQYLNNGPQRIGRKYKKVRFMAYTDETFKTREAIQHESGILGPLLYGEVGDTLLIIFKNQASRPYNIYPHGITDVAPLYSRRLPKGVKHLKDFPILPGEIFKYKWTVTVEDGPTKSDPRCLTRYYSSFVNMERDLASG
Nature of the assay: immunoprecipitation of 35S-labelled polypeptide on BOIIB2-Protein A Sepharose. As to the method:
(§1) For fragments of FVIII of less than 15 amino acids a tag sequence was added including ubiquitin and/or T7 for recognition by specific anti-tag antibodies, together with a complementary sequence of cysteines for S labeling. Polypeptide encoding FVIII fragments were produced in TNT coupled Reticulocyte Lysate Systems (Promega) according to manufacturer's instructions. Immunoprecipitation of transcribed genes was carried out as follows. Dilutions of samples containing specific antibodies were mixed to 40 μl of protein A Sepharose (Pharmacia) in 500 μl of an appropriate buffer and the mixture gently rocked for 1 hour at 4° C. Unbound antibodies are eliminated by a series of centrifugation and washings. The complex of antibody-protein A Sepharose is resuspended in 300 μl of buffer supplemented by 3 μl of in-vitro L-(³⁵S) methionine-labeled FVIII polypeptides for an incubation at 4° C. for 2 hours. Bound antigen/antibody complexes are eluted from the beads by boiling for 3 minutes in 30 μl of denaturing sample buffer and the radioactivity counted. A second aliquot is analyzed by SDS-PAGE and visualized by autoradiography. […] This system includes a combined transcription-translation provided by rabbit reticulocytes. […] Polypeptides are radiolabeled by addition of ³⁵S-methionine in the reaction mixture. BOIIB2 antibody is incubated with a Protein-A Sepharose, washed and resuspended before addition of one of the radiolabeled polypeptides. The suspension is incubated for 90 minutes at room temperature, washed and the labeled polypeptide eluted from Sepharose beads by addition of a sodium-dodecylsulfate containing buffer.

Assay [4] deals with T2, A2 domain residues 379-546 of FVIII with mutation Y487A (human, UniProt P00451 398-565, 35S-methionine labelled).
T2 construct: Read as one of four single mutants; see the note of m4; not shown: cmyc (9E10) tag
T2 sequence: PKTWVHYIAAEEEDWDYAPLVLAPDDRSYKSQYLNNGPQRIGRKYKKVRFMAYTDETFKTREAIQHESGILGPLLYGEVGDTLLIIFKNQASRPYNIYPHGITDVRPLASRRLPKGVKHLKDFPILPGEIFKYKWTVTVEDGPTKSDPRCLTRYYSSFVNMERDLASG
The description is as above. On the procedure:
as §1

Assay [5] addresses T3, A2 domain residues 379-546 of FVIII with mutation R489A (human, UniProt P00451 398-565, 35S-methionine labelled).
T3 construct: Read as one of four single mutants; see the note of m4; not shown: cmyc (9E10) tag
T3 sequence: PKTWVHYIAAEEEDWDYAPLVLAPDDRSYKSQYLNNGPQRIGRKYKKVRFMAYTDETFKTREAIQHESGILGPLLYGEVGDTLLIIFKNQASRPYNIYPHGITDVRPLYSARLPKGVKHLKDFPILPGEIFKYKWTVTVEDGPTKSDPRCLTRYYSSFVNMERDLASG
The assay is described as above. As to the method: as §1

For assay [6], the target named is T4, A2 domain residues 379-546 of FVIII with mutation P492A (human, UniProt P00451 398-565, 35S-methionine labelled).
T4 construct: Read as one of four single mutants; see the note of m4; not shown: cmyc (9E10) tag
T4 sequence: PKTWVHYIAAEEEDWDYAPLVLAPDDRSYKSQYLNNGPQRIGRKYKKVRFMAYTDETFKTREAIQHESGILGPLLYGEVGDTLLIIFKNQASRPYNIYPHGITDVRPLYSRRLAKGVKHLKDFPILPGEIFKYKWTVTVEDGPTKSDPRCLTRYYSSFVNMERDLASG
The assay is described as above. As to the method: as §1

Chain of human Factor VIII (FVIII) (human) (P00451 20-2351): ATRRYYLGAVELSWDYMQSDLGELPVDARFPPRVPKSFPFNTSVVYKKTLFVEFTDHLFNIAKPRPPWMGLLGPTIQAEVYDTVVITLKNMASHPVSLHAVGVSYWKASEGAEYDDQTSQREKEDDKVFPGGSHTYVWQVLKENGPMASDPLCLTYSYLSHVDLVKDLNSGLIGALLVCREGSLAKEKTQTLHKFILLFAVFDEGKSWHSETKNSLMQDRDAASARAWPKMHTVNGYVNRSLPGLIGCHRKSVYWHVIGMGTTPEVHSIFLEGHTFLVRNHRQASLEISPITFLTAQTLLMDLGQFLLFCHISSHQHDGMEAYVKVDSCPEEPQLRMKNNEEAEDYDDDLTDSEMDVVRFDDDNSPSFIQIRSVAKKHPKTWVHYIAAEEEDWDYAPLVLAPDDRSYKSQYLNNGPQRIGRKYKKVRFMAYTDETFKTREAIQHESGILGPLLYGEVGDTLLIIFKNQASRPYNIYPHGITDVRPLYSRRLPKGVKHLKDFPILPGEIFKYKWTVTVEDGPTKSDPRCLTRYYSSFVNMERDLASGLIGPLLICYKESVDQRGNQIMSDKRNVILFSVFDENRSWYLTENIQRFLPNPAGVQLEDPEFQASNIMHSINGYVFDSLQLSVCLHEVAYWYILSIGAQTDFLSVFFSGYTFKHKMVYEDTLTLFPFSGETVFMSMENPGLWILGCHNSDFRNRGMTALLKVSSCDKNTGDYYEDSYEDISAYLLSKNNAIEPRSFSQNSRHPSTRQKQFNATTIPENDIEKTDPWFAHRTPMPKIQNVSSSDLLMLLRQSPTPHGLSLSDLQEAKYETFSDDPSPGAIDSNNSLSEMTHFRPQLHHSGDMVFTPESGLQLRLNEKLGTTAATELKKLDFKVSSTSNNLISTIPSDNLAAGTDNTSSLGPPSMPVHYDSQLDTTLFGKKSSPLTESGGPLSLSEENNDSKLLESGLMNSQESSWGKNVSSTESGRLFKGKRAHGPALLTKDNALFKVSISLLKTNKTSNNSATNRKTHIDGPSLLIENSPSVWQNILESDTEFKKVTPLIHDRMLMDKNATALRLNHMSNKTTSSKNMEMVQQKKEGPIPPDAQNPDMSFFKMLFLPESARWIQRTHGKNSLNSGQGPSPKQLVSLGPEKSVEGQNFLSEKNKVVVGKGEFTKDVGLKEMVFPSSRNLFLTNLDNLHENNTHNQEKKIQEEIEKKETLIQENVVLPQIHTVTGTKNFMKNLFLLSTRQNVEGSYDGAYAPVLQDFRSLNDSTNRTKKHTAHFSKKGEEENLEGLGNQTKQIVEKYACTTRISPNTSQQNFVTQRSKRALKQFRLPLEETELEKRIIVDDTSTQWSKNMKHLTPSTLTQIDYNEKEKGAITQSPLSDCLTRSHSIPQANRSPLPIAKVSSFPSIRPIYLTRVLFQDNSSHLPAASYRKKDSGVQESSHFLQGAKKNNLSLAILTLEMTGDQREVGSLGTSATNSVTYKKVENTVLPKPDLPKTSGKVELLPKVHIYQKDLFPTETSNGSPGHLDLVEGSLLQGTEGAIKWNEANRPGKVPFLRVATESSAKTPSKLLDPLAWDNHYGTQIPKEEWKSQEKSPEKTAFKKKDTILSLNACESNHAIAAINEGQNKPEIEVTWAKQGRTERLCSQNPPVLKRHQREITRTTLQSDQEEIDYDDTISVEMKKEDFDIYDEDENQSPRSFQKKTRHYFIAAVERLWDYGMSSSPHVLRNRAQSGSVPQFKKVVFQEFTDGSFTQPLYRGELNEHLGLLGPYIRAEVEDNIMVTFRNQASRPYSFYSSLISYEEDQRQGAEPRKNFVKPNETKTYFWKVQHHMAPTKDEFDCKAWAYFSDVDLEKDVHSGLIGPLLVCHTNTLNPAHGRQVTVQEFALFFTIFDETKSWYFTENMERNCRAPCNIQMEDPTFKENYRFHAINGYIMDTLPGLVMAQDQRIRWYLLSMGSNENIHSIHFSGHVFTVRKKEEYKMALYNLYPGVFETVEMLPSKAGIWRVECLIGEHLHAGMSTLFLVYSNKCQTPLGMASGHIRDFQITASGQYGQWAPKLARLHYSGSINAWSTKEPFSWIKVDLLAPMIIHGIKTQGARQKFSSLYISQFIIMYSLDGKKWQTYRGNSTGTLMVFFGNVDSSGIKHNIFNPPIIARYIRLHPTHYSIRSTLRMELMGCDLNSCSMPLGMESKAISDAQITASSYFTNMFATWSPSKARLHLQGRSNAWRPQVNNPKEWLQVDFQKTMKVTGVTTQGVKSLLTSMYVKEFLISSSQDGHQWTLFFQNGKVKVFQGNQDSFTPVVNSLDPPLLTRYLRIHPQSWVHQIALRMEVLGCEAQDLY

B1: human monoclonal antibody BOIIB2, produced by the cell line deposited under accession number LMBP 6422CB at the BCCM (antibody, V domains shown)
VH: QVQLQESGPGLVKPSETLSLTCTVSGDSISDYYWSWIRQPPGKGLEWIGYFFYSGGSNYNPSLKSRVTMSVDTSKNQFSLKLGSVTAADTAVYYCARSQLRYYLDVWGQGTTVTVSS
VL: EIVLTQSPGTLSLSPGERATLSCRASQSVDSNYLAWYQQKPGQAPRVVIYGASNRATGIPDRFSGSGSGTEFTLTISRLDPEDFAVYYCQQYGSFFGQGTRLEIK
notes: VH4 (DP-71)/JH6c, VkappaIII/Jkappa5; also called BIIIB2
Take B1: in assay [1], the Percentage of inhibition of FVIII in a chromogenic assay (thrombin-activated FVIII as cofactor of factor IXa in the conversion of factor X to factor Xa) was 99%. In addition, the koff (usually a measure of how fast the partners let go of each other) in assay [2] came to 1e-08 s⁻¹. Further, the binding result in assay [3], in assay [4], in assay [5] and in assay [6] was “no binding” in each case.

(Values after patent publication US20080206254A1 (LIFE SCIENCES RESEARCH PARTNERS VZW, published 2008).)
